Laboratory results published in a protein production outcome set (Wang et al. 2014).

Test: label from the status in PepcDB records

Sequence	protein production
MFKDGSLIPYLTAGDPDKQSTLNFLLALDEYAGAIELGIPFSDPIADGKTIQESHYRALKNGFKLREAFWIVKEFRRHSSTPIVLMTYYNPIYRAGVRNFLAEAKASGVDGILVVDLPVFHAKEFTEIAREEGIKTVFLAAPNTPAERLKVIDDMTTGFVYLVSLYGTTGAREEIPKTAYDLLRRAKRICRNKVAVGFGVSKREHVVSLLKEGANGVVVGSALVKIIGEKGREATEFLKKKVEELLGI	not failed
MFKEVGEPNFPKLEEEVLAFWKREKIFQKSVENRKGGPRYTVYEGPPTANGLPHVGHAQARSYKDLFPRYKTMRGYYAPRRAGWDTHGLPVELEVEKKLGLKSKREIEAYGIERFNQACRESVFTYEKEWEAFTERIAYWVDLENAYATLEPTYIESIWWSLKNLFDRGLLYRDHKVVPYCPRCGTPLSSHEVALGYKEIQDPSVYVRFPLKEPKKLGLEKASLLIWTTTPWTLPGNVAAAVHPEYTYAAFQVGDEALILEEGLGRKLLGEGTPVLKTFPGKALEGLPYTPPYPQALEKGYFVVLADYVSQEDGTGIVHQAPAFGAEDLETARVYGLPLLKTVDEEGKLLVEPFKGLYFREANRAILRDLRGRGLLFKEESYLHSYPHCWRCSTPLMYYATESWFIKNTLFKDELIRKNQEIHWVPPHIKEGRYGEWLKNLVDWALSRNRYWGTPLPIWVCQACGKEEAIGSFQELKARATKPLPEPFDPHRPYVDQVELACACGGTMRRVPYVIDVWYDSGAMPFASLHYPFEHEEVFRESFPADFIAEGIDQTRGWFNFLHQLGVMLFGSIAFKNVICHGLILYEMGQKMSKSKGNVVDPWDIIREFGADALRWYIYVSAPPEADRRFGPNLVRETVRDYFLTLWNVYSFFVTYANLDRPDLKNPPPPEKRPEMDRWLLARMQDLIQRVTEALEAYDPTTSARALRDFVVEDLSQWYVRRNRRRFWKNEDALDREAAYATLYEALVLVATLAAPFTPFLAEVLWQNLVRSVRPEAKESVHLADWPEADPALADEALVAQMRAVLKVVDLARAARAKSGVKTRTPLPLLLVTAPTALEREGLKRFAHEIAEELNVKEVRVLEPGEEILSYRVLPNLKLLGRKYGKLVPKIREALQRERERAAALALKGEAIPLEVEGEALTLLPEEVLLEAEAPKGYQALEKDGYVAALKVEVTEALRMEGLARDLIRLLQQARKDMGLKVSDRIRVGYEAEGPYLEALKRHGPWIAEEVLATAFGEGLFGGFEARVEDEEGKAVFHLARAE	not failed
MFKGTNNASDFTLMSFSDRQAKNHEPRLKARRRGCLIVLADRIIDALYHPAGPCQGADKARQSAIQHFRLDVPEGQCHRLRHLLDMRPAMTQTQPAPACSLPCSILLLAGGRGSRMGGQDKGLVAWRGQPLIAHVQAVVRPLSDDLIISCNRNAERYRAYADRLVEDGQKDFPGPLAGVLAGLATARHPWLLVLACDAPQIDAALIQALLDARGNDTRPVMVQQAGQWQPMFSLIPTALLGDLRQAWDNGERSLLRALAAHGLRPLPCAADDPRLSNFNTPELLSEAGPKPLA	failed
MFKKHNFHFNWLPLILISTVSIMLIFNIRSILSEGIRPFLSVLTPFFWAFGIAYLINPLMMLIEKKFKLKRAFSLMISYILVIICVYILIAIIVPTIFDSLSELFSNLSEYASSAESWINNTLASMNVPLDLNHLNTSATEFISKTSTLLSNIVGSLLTQTIKITSSVVKFVFGFIISIYMLMDKETLIEGCKKIIIAVMPSEKSSELFISFMAEAHNIFSRFIIGKIIDSLIIGVLCYIGLLLMGTQYAVLISFIVGLTNMIPYFGPFIGMIPAFLLTLIVQPSMAIWVLLFIFILQQFDGWYLGPKILGDQVGVSPLFIIFAVTVGGGIFGVLGMFLSVPIIALIKIYTEKFIEYRLENKKQNFSE	failed
MFKNKLAVLFTCLSVFSFSAQSGSFDTVTLGSKGGIQDGNLTAFLIKSEADSNFVMLDAGSVVNGLIVSEQKGAFKDITVPDSSPYTKVGYLLKDKIKGYFISHAHLDHVAGLIISSPDDSKKPIYGLAATNKDLMKNYFNWSAWPNFGNKGEGFKLNKYNYVDLQPGVWSPIAETTMSVMSLPLSHSGGQSTVFILKDSEGDVFAYFGDTGPDEVEKSSAMKTAWSALAPFVKQGKLKGIIIEVSFTNETPDKSLFGHLTPNWLVKELSVLEDMNGKGSLNDLNVAISHIKYSLKNSEDPKVIIKKQLAEANDLGVNFIFPEQGDSLQF	failed
MFKVLAEAFASARLRLGAILFSPQSLAFLPAFCLGLYWYGGETALMITALVFPVFFLVARAKLAETVTTSRQDSVLGVMQPDGFQDIVAARFREARAGGLISTVFQIEIDDHTSLVERHGQRAAEVISTTSADRIAAVLRDRDAVTHLDTFKYAVCLEPVRQMDLELCIQLAGRIQAALEEPIALDATAVCITSSVGFCQQTKVLSRSGEAWLAAAGHALREAHLNGPGAIRAYSEKMQQKSEIRAELREEVAQALEKGQIKPWFQPQISTDTGLVTGFEALARWNHPKRGMVPPGAFLTAIEQAGMLEKLAEVMIFHAFTALKAWDSAGVCVPQVGVNFAGPELSNPKLVDKIIWELDRFDLAPERLAVEVLETVVANSPDDTITRNINGLSKLGCRIDLDDFGTGHASISSIRRFSVSRIKIDRSFVIKADRDPEQQRMISAILTMAERLEVETLAEGVESVGEHALLAQLGCDHVQGFGIGKPMPFDQTLDWIASHNAKLQATPQILPNKLRLEHHHHHH	not failed
MFKVTFAFENGSEVEAFANAGDNLLEVARGANVAIDAPCSGNGACGKCRVQLKGGELDSKKTLHISDEEFEKGWRLACMSKICADVEVLVPDIASAYKSRMKVA	failed
MFLGAAMAQVSLCMIVRDEAELLPRCLASVKDQVDELIVLDTGSRDRTPAIATEAGAKLLHTDWADDFSAARNQAIAAATGDWILVLDADEELILEAWTELRSQLDQPEALAFTVLREETQAGQVPYSRLSRLFRNRPDIRFQRPYHELVDDSLLALQQQEPNWRITAWPTPVIRHYGYGRDRLQQRGTAERMRQSLETWLADHPEDAYLCSKLGGLLVQEGDLKAAQRWLKQGLKQGRPEPAVRYELLYHLALLERRQGDLDAAIDRYQAALQEPVDAIHKLGAWVNLSHLYRDRGQLGLAYDAARQAVAAAPQATVALTALGLAARAIGNYPEAIAAYQQALQLDPNDPSLYQNLGAVLFQVGQLEASYAAFRQAIAGYEQQGSPEAQRLELRLQAMGIRL	failed
MFLKLFSLFLIIPLVEIYLLIKIGGIIGAFNTVLVILITASLGAYLTKSQGFRVFHQIQDATRQGYMPGNELLHGLFVLIGGFALLTPGFLTDAIGFSMLIPQIREIYVGIAKGIIRKKIEQGNFQMRVYTDFR	failed
MFLKRIELQREKVLSFQEYPFSIPAIKHFQRLELKSRVTFFVGENGSGKSTLLEAIADKCEFNTAGGGRNNYYEVDASESALGDYIRLSWLPKVSNGFFLRAESFYHFASHVDEVDARHAYGGRSLHHQSHGEAFLSLFANRFNRKGIYLLDEPEAALSPRRQLSFLAILHDLVSSGDSQFIIATHSPILLGYPHATILSFDHGTIEETTYEQTEHYQLTRYFLENRERMLRELLGELEHHHHHH	failed
MFLLQQLDHTVKKMKSQLANFFTIINLSCGVFAILFTLQGELRVSLLFITIAAVFDRLDGAAARKFDCASDFGKQLDSLTDIISFGVAPALMIYHAILFDFGYAGALFTVFYIACGAIRLARFNITENHNSFIGLPITAAGCILTLLYLAVGYWPDYTFMFAILILSFLMVSTIRVRKM	failed
MFLRIANKILKRLAGVQVIPVNKKRLSVLDNKHLHIASNSILLEGTSLDFRQEISSSDTYVSIGGYCLIKAIFTFETTTGLITIGNNVHIGNAHFICRSAITIHDDVTMAWGITLYDHNSHSIHWEERKDDNKTCYEDFVQHHGNNIVNKNWINVLSRPIVIESKAWIGFNVTILKGVTIGEGAVIGACSVVTKDVPAWTVVAGNPAAVVKHLQKPE	failed
MFLVNNIRCSNMAEFPYTTVPGKIKPFFQKIQEAGLPSKVTQKWINSIGFTSSNDPSIIPLLKKLGFIDRSGVPTELWARYRDKDLAPKVMAEAIKNAYKELFETYPDAYRKDKEALRNFFASQTGKAENTIEKMIQTFKALCELADFESNSEEYPHNEVVPSREGLTTLMEKQTPKGLTINVNIQLQLPATTDEEVYDKLFRSLKRNLLSE	not failed
MFMFRNCAVLLVIGSICCFIYGLFRLHVEVEPNACRMTYMFGEPMFAKVGVRDGDQYPNYALYYYYEGLRQPLDPLKRRMTGAPVIFVPGNAGSYKQVRSLASVALRKAMSNDAGIHLDYYTIDYDEELSALYGGYLHRQQSYLKLCIRTILSIYEGRTEQPSIVLIGHSMGGKLAQSVLVDPAIGQHINTIISISTPLDQPVLNLDTQLEEFYDQTDAVLSKLRTATVPTMTTNVCDSLHQRPPSVQRMASQDSSARLDNVLLISTGGGNRDLLVRPGLTSSRFNDLHAMTSAIPKVSLSCDHLSAVWCLQFMQAINRFLFSVAYVREDRSSIAFGTNKQRNLQTALSTFVKPRRRQQNTVRFGAAGNWHEERRLVINKYFTNGLKGTFFDLIGLQRQERYRKAAIEALNVDDEDWLFGCSAEDNNKTGQLYCEKATSLMHLVQWLPNEDREPRSIALLDLHNLRKTYVHWTHLLVRLPPSAKRIGYNLDIYDPKERVTDIKMPRWYTMAKLPLINETLQGTLHHRVRISEMVDPYQSIRVIVEPLQCINPEYRVTARICVPWAAGFERFQTLKSFDQKPQLYVNVPTLVPRHYNTTLNPVTLELYLDPTCRYRISYEYSYSSALSRLVLEFYGWLPAHLVCVLLIVLRKQVETFYDVGTFRSLRPYVGYLQYTSLYIVTACRLLKKLIISSRVFPEPEPLDYSINVSIVIHCAAIALSLLATLGTWLALTLYGNAFYRLALRITRLSQATSNVMISIMTHLPITYGILTIATAMGTCSGVGLLLAFVFYFLMLSNAYKDYLEDFLWQKAANLVRGKPSAVTEQEDATEEQNEEQNALKQNDEQKQQQQEEEEPEACVGLQNFSFHVTLLLMLFVQLLLNAPSSLAWLRSRRHGINLPDPSLYPSIVVLASLSLLLQLRAPQKCQGYWMLSIAFYILAGVVLLYCQAAIYRLTYVIAGAFALLSAHQSLWILWGRVSRV	failed
MFMGKLPHQADLIGALIEAAGANGIRAGAIQVIGALQGAKLGFYDQWSKSYRELPFAKPLEIVSGLGNISLRDGRPFVHLHLSISDEEGKVFGGHALEGCTIFAAEYAIMPLPGSAPVRVFDETTGLFLWEREQYPASGQKGLSPELERALLNPLEHHHHHH	not failed
MFMIPAWLWIGLIAFALAFVCNRLSPRDLRWFNRLRRPSWLTFEWAIPFIWIAIFIAGAISATLAWNATADPGHRWGLMVGYLLLELTVMAYTPVMCKLRSLRVGSIIGATGFFVGLALVIAVSQVSTTAFGFLVPFLLWSPIGTYVTWAMIPLNPGEI	failed
MFMKKWIGIDLGTTNTVASYFDVSSKIILNERGERITPSIVSFSDKDVLVGSAAKNQILVNPQKTFYNFKTNIGSNNFYKVDGEFYKAEYISAHLLASVKRNAEKFLDEEIENAVITVPAYFSEIQRRCVVEAANFAGLNCKAILNEPTAAAIAYAFERQIDGIFLIYDLGGGTFDVTLMEKQGDTYTVLSVKGQSRLGGNDFNKIIEKYVLDSFKNKYPDFNLEDIFLLEQLRERIEEGKKNLSVMEEVDITLLFLDGKHLNYNLKRDEFNSMISEYIDKTIQLSMECIADSGVDISSVSKIILSGGSTRIPLIEKVLKESFPSATILDALNQDEVVAIGAGIHAFSLSRNDSVIKFKDVTPYSLGLEIKDNEFFTLIKRNTALPISRSKLFTTTNDYQDEIEIHILQGEYKKASLNYSIGRFSFGNIQKALKGIPKIEVLFTLNESGILSVNAKDLETNSSNFIEIKITSSSDNVAKESLSNTFTSIID	failed
MFNQLVKVIPNLFTIGNLLCGVFSITLNMSEYLGAASILIFFSAVLDFLDGRIARKLKVNSEFGVELDSLADIVSFGVAPALLFHTIATPSILTSLAFILFPTMGALRLAKFSIKPTIGYFKGLPIPAAGLSLAGMALFSYSNAWITLILALLMVSPIRFKKF	not failed
